Experimental data reported in article PMC5643561, “Zdhhc13-dependent Drp1 S-palmitoylation impacts brain bioenergetics, anxiety, coordination and motor skills” (Scientific Reports, 2017).

B1: Zdhhc13 L203X, truncated form, recombinant (mouse sequence) (domain or fragment, UniProt Q9CWU2 1-202, looked up)
chain: MEGPGLGSQCRNHSHGSHVPGFGRHGICVHENKELAKAKEILPLIEDSSNCDIVKATQYGIFERCKELVEAGYDVRQPDRENVSLLHWAAINNRLELVKFYISKGAVIDQLGGDLNSTPLHWAIRQGHLPMVILLLQHGADPTLIDGEGFSSIHLAVLFQHMPIIAYLISKGQSVNMTDVNGQTPLMLSAYKVIGPEPTGFL
notes: Zdhhc13, mouse, UniProtKB Q9CWU2; naturally occurring nonsense mutation L203X (premature stop codon at codon 203), so the chain ends at residue 202; also called L203X Zdhhc13; truncated Zdhhc13; source: purified recombinant (culture eluate)
B2: Zdhhc13, wild type, recombinant (mouse sequence) (enzyme, UniProt Q9CWU2 1-622, looked up)
chain: MEGPGLGSQCRNHSHGSHVPGFGRHGICVHENKELAKAKEILPLIEDSSNCDIVKATQYGIFERCKELVEAGYDVRQPDRENVSLLHWAAINNRLELVKFYISKGAVIDQLGGDLNSTPLHWAIRQGHLPMVILLLQHGADPTLIDGEGFSSIHLAVLFQHMPIIAYLISKGQSVNMTDVNGQTPLMLSAYKVIGPEPTGFLLKFNPSLSVVDKTHQNTPLHWAVAAGNVSAVDKLLEAGSSLDIRNAKGETPLDMALQSKNQLISHMLRTEAKMRANKQFRLWRWLHKCELFLLLILSMITLWAVGYILDFNSDSWLLKGCLLVALFFLTSLFPRFLVGYKNLVYLPTVFLLSSIFWIFMTWFILFFPDTAGSPLYFAFIFSIMAFLYFFYKTWATDPGFTKASEEERKVNIVTLAETGSLDFRTFCTSCLIRKPLRSLHCHVCNSCVARFDQHCFWTGRCIGFGNHHHYIFFLLSLSMVCDWIIYGSFVYWSNHCATTFKEDGLWTYLNQIVACSPWVLYIFMLAAFHFSWSTFLLINQLFQIAFLGLTSHERISLLKQSRHMKQTLSLRKTPYNLGFTQNLADFFQCGCFGLVKPCIIDWTSQYTMVFHPAKEKVLRSV
notes: Zdhhc13, mouse, UniProtKB Q9CWU2; also called WT Zdhhc13; full length GST-tagged Zdhhc13; source: purified recombinant (culture supernatant)

Molecular target: T1, Drp1, recombinant, purified (Novus Biologicals # H00010059-P01) (UniProt O00429 1-736)
T1 construct: Drp1 (dynamin-related protein 1); The methods call Drp1 GST-tagged and immobilised; The results describe it as untagged analyte at 56, 167 and 500 nM; also called GST-tagged recombinant, purified Drp1; recombinant Drp1; source: bought: Novus Biologicals, # H00010059-P01
Experiment: BLI; Octet RED384 (ForteBio), anti-GST biosensor. Methods: GST-Drp1 immobilised, WT or L203X Zdhhc13 in solution. Results: GST-Zdhhc13 captured, Drp1 at 56, 167 and 500 nM.
Settings: both partners purified

T1 sequence (O00429 whole entry): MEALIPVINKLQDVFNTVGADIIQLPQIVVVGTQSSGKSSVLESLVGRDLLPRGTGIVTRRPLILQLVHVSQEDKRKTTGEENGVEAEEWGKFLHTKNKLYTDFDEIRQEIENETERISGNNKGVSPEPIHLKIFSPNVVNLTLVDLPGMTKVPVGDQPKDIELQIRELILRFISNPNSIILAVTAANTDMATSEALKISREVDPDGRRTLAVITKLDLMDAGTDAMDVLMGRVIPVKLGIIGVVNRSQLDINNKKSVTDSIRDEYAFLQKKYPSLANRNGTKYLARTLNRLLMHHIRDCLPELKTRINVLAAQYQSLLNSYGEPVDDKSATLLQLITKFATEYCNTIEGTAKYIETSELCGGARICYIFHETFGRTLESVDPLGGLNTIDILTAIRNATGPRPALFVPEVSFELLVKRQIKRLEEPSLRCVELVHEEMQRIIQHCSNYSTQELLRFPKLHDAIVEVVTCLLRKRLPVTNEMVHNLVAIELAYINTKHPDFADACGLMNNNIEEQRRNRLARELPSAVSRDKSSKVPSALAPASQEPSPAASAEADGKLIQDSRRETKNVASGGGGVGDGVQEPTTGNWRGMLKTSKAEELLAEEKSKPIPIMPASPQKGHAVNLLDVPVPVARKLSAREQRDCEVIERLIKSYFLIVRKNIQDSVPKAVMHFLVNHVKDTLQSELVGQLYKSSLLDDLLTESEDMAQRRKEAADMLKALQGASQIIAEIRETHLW

Row | Binder | Kd | koff | kon
1 | B1 | 88 nM | 0.0018 s⁻¹ | 21000 M⁻¹ s⁻¹
2 | B2 | 560 nM | 0.046 s⁻¹ | 82000 M⁻¹ s⁻¹
